Results as given in article PMC7730289.

Tests used:
Assay in all cases: flow cytometry
[1] = molecular target: CD63 on MDA-MB-231 cells (UniProt P08962); conditions: MDA-MB-231 cells; PBS pH 7.4, 2.0 mM MgCl2, 0.02% Tween 20, 100 ug/mL salmon sperm DNA; ELISA 0.5 h; cells at RT 1 h (Methods) or 37 C 30 min (Results)
[2] = molecular target: CD63 overexpressed on HEK293T cells (UniProt P08962); conditions: HEK293T/CD63 cells; PBS pH 7.4, 2.0 mM MgCl2, 0.02% Tween 20, 100 ug/mL salmon sperm DNA; ELISA 0.5 h; cells at RT 1 h (Methods) or 37 C 30 min (Results)
Chain of CD63 overexpressed on HEK293T cells (P08962 whole entry): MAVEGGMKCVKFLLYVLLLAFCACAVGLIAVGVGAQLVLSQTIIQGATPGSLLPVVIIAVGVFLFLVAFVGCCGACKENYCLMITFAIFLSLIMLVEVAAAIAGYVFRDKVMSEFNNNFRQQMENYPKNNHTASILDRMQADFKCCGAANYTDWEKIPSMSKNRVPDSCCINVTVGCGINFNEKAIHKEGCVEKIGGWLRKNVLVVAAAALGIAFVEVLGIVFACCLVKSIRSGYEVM

[3] = system: CD63-negative HEK293T cells; conditions: PBS pH 7.4, 2.0 mM MgCl2, 0.02% Tween 20, 100 ug/mL salmon sperm DNA, ELISA 0.5 h, cells at RT 1 h (Methods) or 37 C 30 min (Results)

Chain of CD63 on MDA-MB-231 cells (P08962 2-238): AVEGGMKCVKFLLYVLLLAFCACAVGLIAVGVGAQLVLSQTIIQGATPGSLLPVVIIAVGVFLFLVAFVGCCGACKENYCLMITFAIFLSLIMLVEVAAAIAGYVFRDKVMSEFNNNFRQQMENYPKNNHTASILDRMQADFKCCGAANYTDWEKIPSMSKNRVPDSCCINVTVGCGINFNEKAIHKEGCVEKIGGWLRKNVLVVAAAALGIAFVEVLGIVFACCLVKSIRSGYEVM

In the case of “TAACACGACAGACGTTCGGAGGTCGAACCCTGACAGCGTGGGC [CD63-1 FAM]”, the Kd [1] is reported as 96.9 nM, the Kd [2] is reported as 113 nM and the Kd [3] is reported as over 1000 nM.
